Legend:
[1] = molecular target: the molecule itself; experiment: cross-linking; in vivo site-specific cysteine crosslinking in E. coli cells with BMB or BMH (0.5 mM, 10 min, cold PBS), quenched with beta-mercaptoethanol; SDS-PAGE and immunoblot with anti-FtsA; dividing cells: ftsZ84(ts) strains 10 and 20 min after return to 30 °C, ftsQ1ts and zipA1ts at 30 °C, ftsA° strain at 30 or 42 °C, WM4952 at 37 °C, WM4953
[2] = molecular target: the molecule itself; experiment: cross-linking; in vivo cysteine crosslinking in ftsQ1(ts) cells (WM7148) shifted to the nonpermissive 42 °C, compared with 30 °C; SDS-PAGE and anti-FtsA immunoblot
[3] = molecular target: the molecule itself; experiment: cross-linking; in vivo cysteine crosslinking in zipA1(ts) cells (WM7149) shifted to the nonpermissive 42 °C, compared with 30 °C; SDS-PAGE and anti-FtsA immunoblot

Row | Protein | DS filament crosslinking at Q155C, percent of WT levels [1] [%] | fold decrease of the crosslinked band's intensity at 42 °C against 30 °C [2] [fold] | fold decrease of the crosslinked band's intensity at 42 °C against 30 °C [3] [fold]
1 | FtsA^M71A with Q155C (natural protein, E. coli, UniProt P0ABH0 1-420, looked up, FtsA, E. coli, M71A, measured by crosslinking at Q155C; M71A introduced into pWM7049 or pWM7239; source: E. coli, expressed from plasmid, in living cells) MIKATDRKLVVGLEIGTAKVAALVGEVLPDGMVNIIGVGSCPSRGMDKGGVNDLESVVKCVQRAIDQAELAADCQISSVYLALSGKHISCQNEIGMVPISEEEVTQEDVENVVHTAKSVRVRDEHRVLHVIPQEYAIDYQEGIKNPVGLSGVRMCAKVHLITCHNDMAKNIVKAVERCGLKVDQLIFAGLASSYSVLTEDERELGVCVVDIGGGTMDIAVYTGGALRHTKVIPYAGNVVTSDIAYAFGTPPSDAEAIKVRHGCALGSIVGKDESVEVPSVGGRPPRSLQRQTLAEVIEPRYTELLNLVNEEILQLQEKLRQQGVKHHLAAGIVLTGGAAQIEGLAACAQRVFHTQVRIGAPLNITGLTDYAQEPYYSTAVGLLHYGKESHLNGEAEVEKRVTASVGSWIKRLNSWLRKEF | ~35 |  | 
2 | FLAG-FtsA^Q155C (natural protein, E. coli, UniProt P0ABH0 1-420, looked up, FtsA, E. coli, with the cysteine substitution Q155C; made by site-directed mutagenesis on pWM2785 (pDSW210-FLAG-FtsA); Native FtsA is also present in some strains; also called pDSW210-FLAG-FtsA^Q155C; source: E. coli, expressed from plasmid pDSW210 (IPTG), in living cells; not shown: FLAG, N-terminal, kept) MIKATDRKLVVGLEIGTAKVAALVGEVLPDGMVNIIGVGSCPSRGMDKGGVNDLESVVKCVQRAIDQAELMADCQISSVYLALSGKHISCQNEIGMVPISEEEVTQEDVENVVHTAKSVRVRDEHRVLHVIPQEYAIDYQEGIKNPVGLSGVRMCAKVHLITCHNDMAKNIVKAVERCGLKVDQLIFAGLASSYSVLTEDERELGVCVVDIGGGTMDIAVYTGGALRHTKVIPYAGNVVTSDIAYAFGTPPSDAEAIKVRHGCALGSIVGKDESVEVPSVGGRPPRSLQRQTLAEVIEPRYTELLNLVNEEILQLQEKLRQQGVKHHLAAGIVLTGGAAQIEGLAACAQRVFHTQVRIGAPLNITGLTDYAQEPYYSTAVGLLHYGKESHLNGEAEVEKRVTASVGSWIKRLNSWLRKEF |  | 3 | 7.5

— PMC11323482, “Role of the antiparallel double-stranded filament form of FtsA in activating the Escherichia coli divisome” (mBio, 2024)
